In US8008452B2, “Phosphorylated Ndr kinase” (Novartis Forschungesstiftung, Zweigniederlassung Friedrich …, priority 2002, dated 2011):

What was measured:
GST-NDR1 [1] = assay: GST-NDR1 kinase assay (peptide kinase assay); type: biochemical, human
Protocol: 1 microgram of purified recombinant GST-NDR1 wild type and mutants (without further treatment or autophosphorylated for 2 h in the presence or absence of 1 mM CaCl2 and […] (Sigma)) were assayed in 20 microliter of reaction mixture containing 20 mM Tris-HCl pH 7.5, 10 mM MgCl2, 1 mM DTT, 100 microM [gamma-^32P]ATP (˜0.5 microCi/microliter), and 1 mM NDR1 substrate peptide ([…]; SEQ ID NO:22). After 30 mins incubation at 30° C., reactions were stopped with 50 mM EDTA, and 10 microliters of reaction mixture were spotted onto 2 cm^2 squares of P81 phosphocellulose paper (Whatman). These were subsequently washed for 4×5 min and 3×20 min in 1% phosphoric acid and once in acetone before counting in a liquid scintillation counter. One unit of NDR1 activity was defined as the amount which catalyses the phosphorylation of 1 nmol peptide substrate in 1 min.
Specific activity of GST-NDR1 mutants was also measured by a peptide kinase assay as described above. For this purpose, 1 microgram of purified GST-NDR1 wild type and alanine mutants were left without further treatment or autophosphorylated for 2 h in the presence or absence of 1 mM CaCl2 and […].

myc-hMOB1 = assay: Co-immunoprecipitation of HA-NDR and myc-hMOB1 from COS-1 cells; type: binding, human; settings: COS-1 cells treated with OA prior to lysis
Protocol: HA-tagged hNDR and myc-tagged hMOB1 were cotransfected in COS1 cells, which were stimulated with okadaic acid or solvent alone. After cell lysis and extract preparation, HA-NDR was immunoprecipitated and co-immunoprecipitated myc-hMOB1 detected or Myc-hMOB1 was immunoprecipitated and co-immunoprecipitated HA-NDR detected.
HA-NDR, wt and mutants, and myc-hMOB1 were cotransfected into COS-1 cells and the cells were treated with OA prior to lysis. HA-NDR was immunoprecipitated and the coimmunoprecipitated myc-hMOB1 detected. […] Furthermore, the two important in vivo phosphorylation sites of NDR, serine-281 in the activation segment and the hydrophobic motif site threonine-444 in the C-terminal regulatory domain were tested, as well as the threonine 74 site in the N-terminal regulatory domain, for their role in NDR-MOB interaction.
HA-NDR N-terminal point mutants and myc-mob1 were co-transfected into COS1 cells which were treated with OA prior to lysis. HA-NDR mutants were immunoprecipitated and coimmunoprecipitated myc-hMOB1 detected.
In this Example, the effect of treatment of COS1 cells with BAPTA-AM on the NDR-MOB Interaction was determined. […] HA-NDR was immunoprecipitated and co-immunoprecipitated myc-MOB1 detected. The kinase activity of the HA-NDR immunoprecipitates was measured in a peptide kinase assay.

GST-NDR1 [2] = assay: Immunodetection of GST-NDR1 phosphorylated on Ser281 or Thr444 after in vitro autophosphorylation; type: biochemical, human; settings: in vitro autophosphorylation with or without Ca2+/S100B
Protocol: Either 1 microgram GST-NDR1 or HA-NDR1 immunoprecipitated from 100 microgram COS-1 detergent extracts as described above was separated on 10% SDS-PAGE and immunoblotted 2 h at RT or overnight at 4° C. with anti-Ser281P antisera (1:1000) in the presence of 50 microg/ml competing unphosphopeptide or anti-Thr444P purified antibody (1:500). Both antibodies were detected with horseradish peroxidase-conjugated donkey anti-rabbit Ig antibody (Amersham biosciences) and developed by ECL (chemiluminescence; Amersham Pharmacia Biotech).
To reliably quantify the effect of S100B on NDR1 phosphorylation status, rabbit polyclonal antibodies were raised against phosphoepitopes comprising Ser281 or Thr444. GST-NDR1 mutants were treated essentially as described in Example 2 and detected either with anti-NDR1_C-term antiserum or polyclonal antibodies recognising NDR1 phosphorylated on Ser281 or Thr444.

B1: S281A: NDR1 alanine mutant of phosphorylation residue Ser281; GST fusion or HA-tagged (protein)
chain: MAMTGSTPCSSMSNHTKERVTMTKVTLENFYSNLIAQHEEREMRQKKLEKVMEEEGLKDEEKRLRRSAHARKETEFLRLKRTRLGLEDFESLKVIGRGAFGEVRLVQKKDTGHVYAMKILRKADMLEKEQVGHIRAERDILVEADSLWVVKMFYSFQDKLNLYLIMEFLPGGDMMTLLMKKDTLTEEETQFYIAETVLAIDSIHQLGFIHRDIKPDNLLLDSKGHVKLSDFGLCTGLKKAHRTEFYRNLNHSLPSDFTFQNMNSKRKAETWKRNRRQLAFATVGTPDYIAPEVFMQTGYNKLCDWWSLGVIMYEMLIGYPPFCSETPQETYKKVMNWKETLTFPPEVPISEKAKDLILRFCCEWEHRIGAPGVEEIKSNSFFEGVDWEHIRERPAAISIEIKSIDDTSNFDEFPESDILKPTVATSNHPETDYKNKDWVFINYTYKRFEGLTARGAIPSYMKAAK
modifications: left off: small tags and cut ends
notes: NDR1 alanine mutant of phosphorylation residue Ser281; GST fusion or HA-tagged
Question: What does the source list for B1?
Answer: Specific activity of GST-NDR1 variants, −S100B (GST-NDR1 [1]; autophosphorylated 2 h in the absence of CaCl2 and S100B): 0.514; Specific activity of GST-NDR1 variants, +S100B (GST-NDR1 [1]; autophosphorylated 2 h in the presence of 1 mM CaCl2 and 10 mM bovine S100B): 0.952; kinase activity of GST-NDR1 mutant (in words) (GST-NDR1 [1]; compared with wild type): almost undetectable; Specific activity of GST-NDR1 variants, CTRL (GST-NDR1 [1]; left without further treatment): 0.16; interaction of HA-NDR variant with myc-hMOB1 (myc-hMOB1): still interact with MOB1; phosphorylation of GST-NDR1 on Ser281 and Thr444 (phosphospecific antibodies) (GST-NDR1 [2]): entirely abolishes the autophosphorylation on Thr444
